Measurements reported in US20150239980A1 (NEOTOPE BOSCIENCES, published 2015).
Changes are numbered by the printed parent chain. Values belong to the binder of their own block, whether it stands above or below them.

Columns and labels:
[1] = molecular target: T1, mouse MCAM expressed on transfected CHO cells (mouse, UniProt Q8R2Y2 24-648); test: flow cytometry, mouse MCAM transfected cells mixed with CFSE-labelled untransfected cells
T1 construct: whole, on cells; also called murine MCAM
T1 sequence (looked up): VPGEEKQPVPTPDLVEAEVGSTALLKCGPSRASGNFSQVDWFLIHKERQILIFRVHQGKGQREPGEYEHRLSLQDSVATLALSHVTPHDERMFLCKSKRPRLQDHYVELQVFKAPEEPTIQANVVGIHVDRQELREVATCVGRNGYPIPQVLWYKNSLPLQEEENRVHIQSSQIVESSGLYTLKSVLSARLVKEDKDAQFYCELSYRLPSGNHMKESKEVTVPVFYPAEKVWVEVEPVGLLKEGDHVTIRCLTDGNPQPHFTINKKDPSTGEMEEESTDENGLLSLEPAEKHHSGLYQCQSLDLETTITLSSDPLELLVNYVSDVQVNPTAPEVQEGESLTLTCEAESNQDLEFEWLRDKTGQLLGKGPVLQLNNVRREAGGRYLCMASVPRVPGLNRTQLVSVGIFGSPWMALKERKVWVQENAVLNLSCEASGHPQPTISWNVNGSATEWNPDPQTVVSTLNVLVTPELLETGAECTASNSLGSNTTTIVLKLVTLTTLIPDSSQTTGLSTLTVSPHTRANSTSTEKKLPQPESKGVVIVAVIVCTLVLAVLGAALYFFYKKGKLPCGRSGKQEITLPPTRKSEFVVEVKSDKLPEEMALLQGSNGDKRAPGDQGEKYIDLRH
Experimental: For the generation of antibodies capable of binding to murine MCAM, MCAM-Fc was generated by fusing the extracellular domain of murine MCAM to human IgG and produced in CHO cells using standard techniques. Lou/M rats were immunized with 100 μg of MCAM-Fc protein in CFA (1:1 volume). Rats were boosted two times at two week intervals with MCAM-Fc protein in incomplete Freund's adjuvant (IFA) (1:1 volume). Hybridomas were generated from immunized rats using standard protocols and clones were selected by Clonepix. CHO cells were transfected with the full length murine MCAM gene and selected for stable expression using neomycin and standard techniques. Parental CHO cells (MCAM negative) were fluorescently labeled with carboxyfluorescein succinimidyl ester (CFSE) using standard techniques and mixed at a 1:1 ratio with unlabeled MCAM transfected CHO cells. Hybridoma supernatants were incubated with this mixture of cells for 30 minutes and binding of potential MCAM specific antibodies was detected with a fluorescently labeled anti-rat secondary antibody (Jackson Immuno) by flow cytometry.

[2] = molecular target: T2, murine MCAM-Fc fusion protein (mouse, UniProt Q8R2Y2 24-563); test: ForteBio Octet Red, anti-human IgG Fc (AHC) biosensors loaded with mouse MCAM-hFc proteins (5 ug/ml), dipped into antibody (5 ug/ml) or SP2 media
T2 construct: extracellular domain; produced in CHO cells; also called mouse MCAM-Fc; mouse MCAMhFc; not shown: fused to human IgG
T2 sequence (looked up): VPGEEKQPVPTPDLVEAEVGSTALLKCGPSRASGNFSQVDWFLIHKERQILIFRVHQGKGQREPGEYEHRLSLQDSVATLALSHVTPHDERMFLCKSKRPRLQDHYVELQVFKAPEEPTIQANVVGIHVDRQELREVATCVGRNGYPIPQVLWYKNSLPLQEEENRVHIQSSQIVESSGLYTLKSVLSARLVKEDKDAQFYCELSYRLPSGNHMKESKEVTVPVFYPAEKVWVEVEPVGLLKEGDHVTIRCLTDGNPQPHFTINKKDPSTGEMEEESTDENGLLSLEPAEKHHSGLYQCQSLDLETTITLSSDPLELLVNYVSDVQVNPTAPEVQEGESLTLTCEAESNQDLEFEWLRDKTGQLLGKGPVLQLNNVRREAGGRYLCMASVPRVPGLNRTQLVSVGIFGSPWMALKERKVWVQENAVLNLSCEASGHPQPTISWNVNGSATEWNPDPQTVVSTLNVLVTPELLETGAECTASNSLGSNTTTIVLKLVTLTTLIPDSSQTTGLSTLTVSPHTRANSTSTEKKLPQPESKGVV
Excerpt: (§1) The following protocol was used: ForteBio Domain Mapping Protocol. ForteBio anti-human IgG Fc biosensors were used to immobilize various mouse MCAMhFc domains including full length mouse MCAMhFc protein on to biosensor surface. These sensors were dipped into either clone 15 or 17 MCAM specific antibody for detection of binding to these domains or full length protein. After loading these samples into a black 96 well plate, the Octet Red was programmed as follows: 60 seconds for baseline #1; 180 seconds for loading various domains; 60 seconds for baseline #2; 180 seconds for association of antibody to domain; and 240 seconds for dissociation of antibody from domain.
(§2) 1. Mouse MCAMhFc final concentration @ 5 ug/ml [0466] 2. Antibody clone 15 or 17 @ 5 ug/ml [0467] 3. ForteBio anti-human IgG Fc Capture (AHC) biosensors for kinetics experiments, cat#18-5060 [0468] 4. […] 5. ForteBio Octet Red machine [0470] 6. Fresh tissue culture medium, DMEM with 20% FCS, was used as buffer for dilution
(§3) For FIGS. 10A-B, clones 15 and 17 were tested against the following protein samples (all have human IgG Fc tag): Murine MCAM; Human Fc full length protein; Murine MCAM domain 1 (Ig1); Murine MCAM domain 2 (Ig2); and Murine MCAM domain 1 and 2 (Ig1-2A).

Ig2 domain = molecular target: T3, Ig2 domain (mouse, UniProt Q8R2Y2); test: as above
T3 construct: isolated domain 2; also called Murine MCAM domain 2 (Ig2) with human IgG Fc tag
T3 sequence (Fc fusion chain, looked up): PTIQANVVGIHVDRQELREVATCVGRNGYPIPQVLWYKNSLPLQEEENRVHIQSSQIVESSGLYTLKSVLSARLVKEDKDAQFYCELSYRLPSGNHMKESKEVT
Excerpt: as §1, §2, §3

recombinant hMCAM-His [3] = molecular target: T4, recombinant hMCAM-His (human, UniProt P43121 24-559); test: ForteBio Octet Red, hMCAM-His analyte; Expt. #2; vs rodent 2120
T4 construct: not shown: His tag
T4 chain: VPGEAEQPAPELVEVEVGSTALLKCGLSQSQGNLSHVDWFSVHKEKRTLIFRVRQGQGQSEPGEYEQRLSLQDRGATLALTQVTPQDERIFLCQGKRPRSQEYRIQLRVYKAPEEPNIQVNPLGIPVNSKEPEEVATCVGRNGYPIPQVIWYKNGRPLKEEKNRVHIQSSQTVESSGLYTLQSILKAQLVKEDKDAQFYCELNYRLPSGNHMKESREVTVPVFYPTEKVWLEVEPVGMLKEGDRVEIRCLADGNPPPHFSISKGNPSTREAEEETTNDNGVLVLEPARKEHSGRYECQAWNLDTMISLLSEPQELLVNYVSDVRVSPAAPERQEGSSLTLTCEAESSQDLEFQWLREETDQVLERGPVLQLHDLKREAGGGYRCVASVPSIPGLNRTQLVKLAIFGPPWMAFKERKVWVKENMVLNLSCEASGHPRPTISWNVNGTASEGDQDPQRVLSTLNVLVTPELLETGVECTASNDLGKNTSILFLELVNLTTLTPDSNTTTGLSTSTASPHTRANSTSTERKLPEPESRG
Experimental: (§4) The affinities were measured using the ForteBio Octet Red. Anti-human Fc sensors were used to capture the humanized antibodies, and several concentrations of hMCAMHis analyte were used to determine the affinity using a 1:1 fitting model.

[4] = molecular target: T5, human MCAM (melanoma cell adhesion molecule) expressed on transfected CHO cells (human, UniProt P43121 24-646); test: laminin/FACS on hMCAM CHO cells, competitor laminin 411; Expt#1; vs rodent 2120
T5 construct: also called hMCAM; CD146
T5 chain: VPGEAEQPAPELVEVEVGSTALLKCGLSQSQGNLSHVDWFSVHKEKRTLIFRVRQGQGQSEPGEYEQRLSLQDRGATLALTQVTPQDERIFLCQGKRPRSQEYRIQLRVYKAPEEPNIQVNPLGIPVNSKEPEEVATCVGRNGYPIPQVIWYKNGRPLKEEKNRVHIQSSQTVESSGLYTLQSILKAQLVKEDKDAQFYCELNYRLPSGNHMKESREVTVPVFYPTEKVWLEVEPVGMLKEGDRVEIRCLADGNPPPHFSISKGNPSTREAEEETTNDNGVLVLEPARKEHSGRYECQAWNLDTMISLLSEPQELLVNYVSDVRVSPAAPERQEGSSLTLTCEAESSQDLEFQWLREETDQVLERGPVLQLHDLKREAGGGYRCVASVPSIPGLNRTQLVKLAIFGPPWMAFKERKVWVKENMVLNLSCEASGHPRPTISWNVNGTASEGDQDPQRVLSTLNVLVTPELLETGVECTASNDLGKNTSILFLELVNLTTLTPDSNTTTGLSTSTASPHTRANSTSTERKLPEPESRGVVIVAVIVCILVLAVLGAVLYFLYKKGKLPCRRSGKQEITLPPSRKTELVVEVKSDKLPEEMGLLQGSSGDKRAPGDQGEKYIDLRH
Experimental: (§5) Following incubation for 30-45 minutes, the cells were washed and anti-laminin conjugated to AF650 (NovusBio) was added to detect the bound laminin. The cells were run on a flow cytometer to measure the laminin binding signal.

recombinant hMCAM-His [5] = molecular target: T4, recombinant hMCAM-His; test: ForteBio Octet Red, hMCAM-His analyte; Forte column 1; vs rodent 2120
Experimental: as §4

recombinant hMCAM-His [6] = molecular target: T4, recombinant hMCAM-His; test: competitive ELISA on hMCAM-His, competitor biotinylated rodent or chimeric 2120; Expt. #1; vs rodent 2120
Experimental: (§6) ELISA plates were coated with recombinant hMCAM-His, and blocked with casein buffer to prevent non-specific binding. Biotinylated rodent or chimeric antibody was added at a subsaturating concentration, in the presence or absence of 3× increasing concentrations of unlabeled competitor (humanized antibody, rodent, or chimeric). After washing to remove unbound antibody, streptavidin HRP was added to allow detection of the biotinylated antibody. The ELISA was developed with TMB substrate and the OD450 was measured. The IC50 of the unlabeled competitor was determined using the GraphPad Prism5 software.

[7] = molecular target: T5, human MCAM (melanoma cell adhesion …); test: laminin/FACS on hMCAM CHO cells, competitor laminin 411; Expt#2; vs rodent 2120
Experimental: as §5

recombinant hMCAM-His [8] = molecular target: T4, recombinant hMCAM-His; test: summary of ForteBio, hMCAM-His; vs rodent 2120
Experimental: as §4

recombinant hMCAM-His [9] = molecular target: T4, recombinant hMCAM-His; test: competitive ELISA on hMCAM-His, competitor biotinylated rodent or chimeric 2120; vs rodent 2120
Experimental: as §6

recombinant hMCAM-His [10] = molecular target: T4, recombinant hMCAM-His; test: competitive ELISA on hMCAM-His, competitor biotinylated rodent or chimeric 2120; Expt. #2; vs rodent 2120
Experimental: as §6

recombinant hMCAM-His [11] = molecular target: T4, recombinant hMCAM-His; test: ForteBio Octet Red, hMCAM-His analyte; Expt. #1; vs rodent 2120
Experimental: as §4

recombinant hMCAM-His [12] = molecular target: T4, recombinant hMCAM-His; test: ForteBio Octet Red, hMCAM-His analyte; Forte column 2; vs rodent 2120
Experimental: as §4

binding result [1]: binds
binding result [2]: binds
binding result (Ig2 domain): no binding (tested: 5 ug/ml)
B1: anti-MCAM monoclonal antibody clone 17 (antibody, V domains shown)
VH: EVQLVESGGGLVQPGRSLKLSCAASGFTFSNYYMAWVRQAPTKGLEWVASISFEGNRNHYGDSVKGRITISRDNAKSTLYLQMTSLRPEDTATYYCARHRGYSTNFYHDVLDAWGQGALVTVSS
VL: DVQMTQSPSYLATSPGESVSISCKASKNIDTYLAWYQEKPGKTNKLLIYSGSTLQSGTPSRFSGSGSGTDFTLTIRNLESEDFAVYYCQQHNEYPLTFGSGTKLEIKR
notes: rat monoclonal raised against murine MCAM-Fc; also called anti-MCAM clone 17

fold over rodent (Forte affinity) (recombinant hMCAM-His [3]): 6.21 fold
fold over rodent (blocking, laminin/FACS) [4]: 1.7 fold
fold over rodent (Forte affinity) (recombinant hMCAM-His [5]): 5.9 fold
fold over rodent (competitive ELISA) (recombinant hMCAM-His [6]): 2.23 fold
fold over rodent (blocking, laminin/FACS) [7]: 2.8 fold
fold reduction in affinity as measured by ForteBio (recombinant hMCAM-His [8]): > 5 fold
fold over rodent (competitive ELISA) (recombinant hMCAM-His [9]): 1.8 fold
fold over rodent (competitive ELISA) (recombinant hMCAM-His [10]): 2.42 fold
fold over rodent (Forte affinity) (recombinant hMCAM-His [11]): 5.64 fold
fold over rodent (Forte affinity) (recombinant hMCAM-His [12]): 5.8 fold
B2: h2120_VH1 + h2120_VL3 (antibody, human IgG1, V domains shown)
VH: QVTLKESGPVLVKPTETLTLTCTVSGFSLTSNGVSWVRQPPGKALEWIAAISSGGTTYYNSAFKSRLTISRDTSKSQVVLTMTNMDPVDTATYYCARRYGYGWYFDFWGQGTLVTVSS
VL: DIQMTQSPSSLSASVGDRVTINCKASQNIYNSLAWYQQKPGKAPKVLIFNANSLQTGIPSRFSGSGSGTDFTLTISSLQPEDFATYYCQQFYSGYTFGQGTKLEIK

fold over rodent (Forte affinity) (recombinant hMCAM-His [3]): 6.43 fold
fold over rodent (competitive ELISA) (recombinant hMCAM-His [6]): 1.93 fold
fold reduction in affinity as measured by ForteBio (recombinant hMCAM-His [8]): > 5 fold
fold over rodent (competitive ELISA) (recombinant hMCAM-His [10]): 2.62 fold
fold over rodent (Forte affinity) (recombinant hMCAM-His [11]): 6.57 fold
B3: h2120_VH2 + h2120_VL3 (antibody, human IgG1, V domains shown)
VH: B2 VH with T68S
VL: B2 VL
